Patent US20040235710A1, “Pre-mixes of glp-1 and basal insulin” (published 2004)
No end group written: not given here.

Each binder was assayed against T1, human GLP-1 receptor (human, UniProt P43220) (assay: cell-based or functional assay).

Row | Binder | GLP-1 Receptor Activation (relative to GLP-1(7-37)OH) [relative potency]
1 | HVEGTFTSDVSSYLEGQAAKEFIAWLEKGRG [Val^8-Glu^33-GLP-1(7-37)OH] | 0.039
2 | HVEGTFTSDVSSYLEGQAAKEFIAWLAKGRG [Val^8-Ala^33-GLP-1(7-37)OH] | 0.1
3 | HVEGTFTSDVSSYLEGQAAKEFIAWLGKGRG [Val^8-Gly^33-GLP-1(7-37)OH] | 0.01
4 | HVEGTFTSDVSSYLEGQAAKEFIAWLVEGRG [Val^8-Glu^34-GLP-1(7-37)OH] | 0.17
5 | HVEGTFTSDVSSYLEGQAAKEFIAWLVKPRG [Val^8-Pro^35-GLP-1(7-37)OH] | 0.094
6 | HGEGHFTSDVSSYLEGQAAKEFIAWLVKGRG [Gly^8-His^11-GLP-1(7-37)OH] | 0.282
7 | HVEGTFTSDVSSYLEGQAAKEFIAWLVKHRG [Val^8-His^35-GLP-1(7-37)OH] | 0.41
8 | HVEGTFTSDVSSYLEGQAAKEFIAWLVKERG [Val^8-Glu^35-GLP-1(7-37)OH] | 0.15
9 | HVEGTFTSDVSSYLEGQAAKEFIAWLVKGEG [Val^8-Glu^36-GLP-1(7-37)OH] | 0.11
10 | HVEGTFTSDVSSYLEGQAAKEFIAWLVKGHG [Val^8-His^36-GLP-1(7-37)OH] | 0.22
11 | HVEGTFTSDVSSYLEGQAAKEFIAWLVKGRH [Val^8-His^37-GLP-1(7-37)OH] | 0.33
12 | HVEGTFTSDLSSYLEGQAAEEFIAWLVKGRG [Val^8-Leu^16-Glu^26-GLP-1(7-37)OH] | 0.23
13 | HVEGTFTSDVSSYLEKQAAKEFIEWLVKGRG [Val^8-Lys^22-Glu^30-GLP-1(7-37)OH] | 0.37
14 | HVEGTFTSDVSSYLEKEAAKEFIAWLVKGRG [Val^8-Lys^22-Glu^23-GLP-1(7-37)OH] | 0.35
15 | HVEGTFTSDVSSYLEEKAAKEFIAWLVKGRG [Val^8-Glu^22-Lys^23-GLP-1(7-37)OH] | 1.43
16 | HVEGAFTSDVSSYLEGQAAKEFIAWLVKGRG [Val^8-Ala^11-GLP-1(7-37)OH] | 0.021
17 | HVEGTFTSDVSSYLEGQAAKEFIAWLKVGRG [Val^8-Lys^33-Val^34-GLP-1(7-37)OH] | 0.08
18 | HVEGTFTSDVSSYLEGQAAKEFIAWLKNGRG [Val^8-Lys^33-Asn^34-GLP-1(7-37)OH] | 0.09
19 | HVEGTFTSDVSSYLEGQAAKEFIAWLVGKRG [Val^8-Gly^34-Lys^35-GLP-1(7-37)OH] | 0.34
20 | HVEGTFTSDVSSYLEGQAAKEFIAWLVKGGP-NH2 [Val^8-Gly^36-Pro^37-GLP-1(7-37)NH2] | 0.53
21 | HVEGKFTSDVSSYLEGQAAKEFIAWLVKGRG [Val^8-Lys^11-GLP-1(7-37)OH] | 0.001
22 | HVEGTFTSDESSYLEGQAAKEFIAWLVKGRG [Val^8-Glu^16-GLP-1(7-37)OH] | 0.047
23 | HVEGTFTSDASSYLEGQAAKEFIAWLVKGRG [Val^8-Ala^16-GLP-1(7-37)OH] | 0.112

Target: T1, human GLP-1 receptor
Assay: cell-based or functional assay
Remark: another data set of the same source

Row | Binder | GLP-1 receptor activation relative to Val^8-GLP-1(7-37)OH [relative potency]
24 | HVEGTFTSDWSSYLEEQAVKEFIAWLVKGRG [Val^8-Trp^16-Glu^22-Val^25-GLP-1(7-37)OH] | 4.4
25 | HGEGTFTSDVSSYLEGQAAKEFIAWLVKGRG [Gly^8-GLP-1(7-37)OH] | 1.7
26 | HVEGTYTSDVSSYLEGQAAKEFIAWLVKGR-NH2 [Val^8-Tyr^12-GLP-1(7-36)NH2] | 1.1
27 | HVEGTWTSDVSSYLEGQAAKEFIAWLVKGRG [Val^8-Trp^12-GLP-1(7-37)OH] | 1.1
28 | HVEGTFTSDLSSYLEGQAAKEFIAWLVKGRG [Val^8-Leu^16-GLP-1(7-37)OH] | 1.1
29 | HVEGTFTSDVSSYLEGQALKEFIAWLVKGRG [Val^8-Leu^25-GLP-1(7-37)OH] | 0.5
30 | HVEGTYTSDYSSYLEGQAAKEFIAWLVKGRG [Val^8-Tyr^12-Tyr^16-GLP-1(7-37)OH] | 1.5
31 | HVEGTWTSDVSSYLEEQAAKEFIAWLVKGRG [Val^8-Trp^12-Glu^22-GLP-1(7-37)OH] | 1.7
32 | HVEGTYTSDVSSYLEEQAAKEFIAWLVKGRG [Val^8-Tyr^12-Glu^22-GLP-1(7-37)OH] | 2.7
33 | HVEGTFTSDYSSFLEGQAAKEFIAWLVKGRG [Val^8-Tyr^16-Phe^19-GLP-1(7-37)OH] | 2.8
34 | HVEGTFTSDLSSYLEEQAAKEFIAWLVKGRG [Val^8-Leu^16-Glu^22-GLP-1(7-37)OH] | 4.3
35 | HVEGTFTSDISSYLEEQAAKEFIAWLVKGRG [Val^8-Ile^16-Glu^22-GLP-1(7-37)OH] | 3.3
36 | HVEGTFTSDFSSYLEEQAAKEFIAWLVKGRG [Val^8-Phe^16-Glu^22-GLP-1(7-37)OH] | 2.3
37 | HVEGTFTSDVSFYLEEQAAKEFIAWLVKGRG [Val^8-Phe^18-Glu^22-GLP-1(7-37)OH] | 2
38 | HVEGTFTSDVSIYLEEQAAKEFIAWLVKGRG [Val^8-Ile^18-Glu^22-GLP-1(7-37)OH] | 4
39 | HVEGTFTSDVSKYLEEQAAKEFIAWLVKGRG [Val^8-Lys^18-Glu^22-GLP-1(7-37)OH] | 2.5
40 | HVEGTFTSDVSSWLEEQAAKEFIAWLVKGRG [Val^8-Trp^19-Glu^22-GLP-1(7-37)OH] | 3.2
